US6730301

Experiments:
Experiment in all cases: cell-based or functional assay
[1] = molecular target: MCP-1RB (monocyte chemoattractant protein-1 receptor B) (human) (UniProt P41597)
[2] = molecular target: MIP-1α/RANTES receptor (Homo sapiens (Human)) (UniProt P32246)
[3] = molecular target: T1, MIP-1α/RANTES receptor (Homo sapiens (Human), UniProt P32246 1-355)
T1 sequence: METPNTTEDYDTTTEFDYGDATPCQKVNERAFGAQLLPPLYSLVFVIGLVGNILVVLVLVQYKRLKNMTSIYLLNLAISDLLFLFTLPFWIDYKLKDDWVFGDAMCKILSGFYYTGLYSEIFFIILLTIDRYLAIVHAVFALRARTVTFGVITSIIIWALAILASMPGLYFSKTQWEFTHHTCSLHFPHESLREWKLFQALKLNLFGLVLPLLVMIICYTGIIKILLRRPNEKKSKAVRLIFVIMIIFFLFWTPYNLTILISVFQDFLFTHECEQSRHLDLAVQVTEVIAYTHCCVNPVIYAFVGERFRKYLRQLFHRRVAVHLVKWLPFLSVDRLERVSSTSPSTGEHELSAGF

MCP-1RB (monocyte chemoattractant protein-1 receptor B) (human), sequence (P41597 other isoform, or with tags, fused parts or gaps): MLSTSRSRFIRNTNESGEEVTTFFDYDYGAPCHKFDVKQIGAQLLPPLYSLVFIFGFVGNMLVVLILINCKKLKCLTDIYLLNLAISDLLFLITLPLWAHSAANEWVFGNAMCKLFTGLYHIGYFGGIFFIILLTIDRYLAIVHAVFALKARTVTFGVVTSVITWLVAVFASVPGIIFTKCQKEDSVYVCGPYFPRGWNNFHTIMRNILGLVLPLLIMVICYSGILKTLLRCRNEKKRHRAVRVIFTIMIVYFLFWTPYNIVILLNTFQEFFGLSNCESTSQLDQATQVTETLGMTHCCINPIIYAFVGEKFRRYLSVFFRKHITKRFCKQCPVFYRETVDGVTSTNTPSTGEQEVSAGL

## Gro-α (from UniProt P09341 35-107) (ligand)
[1]
  IC50, Inhibition of Adenylyl Cyclase: > 1000 nM
[2]
  IC50, Inhibition of Adenylyl Cyclase: > 1000 nM

## IL-8 (interleukin-8) (from UniProt P10145 28-99) (ligand)
[1]
  IC50, Inhibition of Adenylyl Cyclase: > 1000 nM

B1: RANTES (ligand, UniProt P13501 24-91, looked up)
chain: SPYSSDTTPCCFAYIARPLPRAHIKEYFYTSGKCSNPAVVFVTRKNRQVCANPEKKWVREYINSLEMS
[3]
  IC50, Inhibition of Adenylyl Cyclase: 0.14 nM
  Selectivity (against MCP-1RB), inhibition of adenylyl cyclase: > 7000 fold
[1]
  IC50, Inhibition of Adenylyl Cyclase: > 1000 nM

B2: MIP-1β (ligand, UniProt P13236 24-92, looked up)
chain: APMGSDPPTACCFSYTARKLPRNFVVDYYETSSLCSQPAVVFQTKRSKQVCADPSESWVQEYVYDLELN
[3]
  IC50, Inhibition of Adenylyl Cyclase: 10 nM
  Selectivity (against MCP-1RB), inhibition of adenylyl cyclase: > 100 fold
[1]
  IC50, Inhibition of Adenylyl Cyclase: > 1000 nM

B3: MIP-1α (ligand, UniProt P10147 27-92, looked up)
chain: ADTPTACCFSYTSRQIPQNFIADYFETSSQCSKPGVIFLTKRSRQVCADPSEEWVQKYVSDLELSA
[3]
  IC50, Inhibition of Adenylyl Cyclase: 0.11 nM
  Selectivity (against MCP-1RB), inhibition of adenylyl cyclase: > 9000 fold
[1]
  IC50, Inhibition of Adenylyl Cyclase: > 1000 nM
